# Columns and labels:
# [1] = test system: human renal fibroblasts; assay: α-SMA and vimentin mRNA expression in primary culture of human renal fibroblasts; assay type: cell-based; settings: sCD146 50 ng/ml, versus control without treatment
# Experimental: The effect of sCD146 (50 ng/ml) was examined on primary culture from human fibroblasts. The effect of 500 ng/ml anti-sCD146 mAb administrated either alone (Ac) or with sCD146.
# Results are mean values +/−SE of 3 experiments and expressed as fold change versus control condition without treatment.
# The effect of anti-sCD146 treatment was observed on the mRNA expression of α-SMA and vimentin in human renal fibroblast in (in vitro) culture.
# [2] = test system: chorio-allantoic membrane of the chick embryo; assay: Chorio-allantoic membrane assay; assay type: in vivo; settings: 25 ng/ml or 50 ng/ml, 48 h
# Experimental: D: Yolk sac membrane assays were performed in the presence of 25 ng/ml or 50 ng/ml I5-13-sCD146 and I10-sCD146 for 48 h and compared to control. Representative pictures of 4 different experiments are given.
# The chorio-allantoic membrane of the chick embryo assay (CAM) was performed using a previously described protocol (Beckers et al., 1997).
# The chorio-allantoic membrane of the chick embryo assay (CAM) was surgically removed and fixed in 10% buffered formaldehyde for 10 hours, dehydrated in graded alcohol, cleared in xylene and embedded in paraffin. 5 μm thick sections were cut in a plane parallel to the surface of the CAM and stained by hematoxylin-eosin which was observed under a light photomicroscope.
# [3] = test system: CD146 KO mouse model of Systemic Sclerosis; assay: CD146 KO mouse model of Systemic Sclerosis induced by bleomycin; assay type: in vivo; settings: bleomycin-treated animals, subcutaneous injection
# Experimental: C: Dermal thickness was evaluated in a CD146 KO mouse model of Systemic Sclerosis induced by subcutaneous injection of bleomycin. The effect of shed sCD146, I5-13-sCD146 and I10-sCD146 was estimated and the average of 4-5 different animals was given. Representative pictures are also shown.
# D: The aspect of the skin is shown in the different CD146 KO mice treated with bleomycin and injected or not with shed sCD146, I10-sCD146 and I5-13-sCD146.
# E: Blood vessels examination in skin of animals treated or not with shed sCD146/I10-sCD146/I5-13-sCD146. Vessels are labelled with isolectin B4. Results are representative of 3 different experiments in the 4-5 animals.
# Male CD146 KO mice (11-16 weeks) were treated with subcutaneous bleomycin and were compared with littermates WT mice as previously described (Kaspi et al., 2017).
# Mice skin sections were fixed in 4% formalin and embedded into paraffin. Dermal thickness was quantified using a stereological method using a Merz grid as previously described (Kaspi et al., 2017).
# [4] = test system: miR21; assay: In vitro induction of miR21; assay type: cell-based
# [5] = test system: renal and cardiac endothelial cells; assay: In vitro endothelial-mesenchymal transition; assay type: cell-based
# [6] = test system: ECFC; assay: Permeability of ECFC monolayer to dextran-FITC; assay type: cell-based, human; settings: treatment with recombinant proteins
# Experimental: D: ECFC were transfected with siRNA targeting ADAM10 or Tace and with a control siRNA (C). The permeability of the ECFC monolayer grown on semi-permeable filters was determined using dextran-FITC. Results are the mean values+/−SEM of 3 experiments.
# E: ECFC were transfected with plasmid vectors encoding ADAM10 (p-ADAM10) or Tace (p-Tace) and with a control plasmid vector (C). The permeability of the ECFC monolayer grown on semi-permeable filters was determined using dextran-FITC. Results are the mean values+/−SEM of 3 experiments. *: P<0.05, **: P<0.01, ***: P<0.001, experimental vs Control.
# ECFC were seeded at 60,000 cells per well on membrane inserts (porosity 1 μm) of a 24-multiwell double chamber system (Multiwell Insert System, BD Biosciences, Le Pont de Claix, France) after siRNA transfection or not. Confluent endothelial monolayers were then incubated for 24 h in EGM-2 medium in the presence or absence of the different forms of sCD146. The FITC-dextran (sigma) was added at the apical surface of the cells and was allowed to migrate for 1.5 h at 37° C. Basolateral FITC-dextran was then measured using a Cytofluor Series 4000 Fluorescence (PerSeptiveBiosystems, Framingham, MA).
Molecule,α-SMA and vimentin mRNA expression [1],vascularisation in chorio-allantoic membrane assay [2],dermal thickness [3],vascularisation of the skin at macroscopic level [3],vessel density in skin (isolectin-b4 labelling) [3],miR21 induction [4],endothelial-mesenchymal transition [5],transendothelial permeability [6]
"sCD146: recombinant human soluble form of CD146 corresponding to the shed sCD146, obtained from Biocytex",increase in α-SMA and vimentin mRNA expression,increased vascularisation,reduced this dermal thickness to the value observed in control animals,increased vascularisation,significantly reversed,significantly induces in vitro miR21,induces in vitro an endothelial-mesenchymal transition,–
"rh-I5-13-sCD146: recombinant spliced variant of soluble CD146 containing introns 5 and 13, SEQ ID NO: 8 (protein, listed as Homo sapiens) MVYIVRQFLLYNVSGSVYLDQLIVLLTAKFSILRIAGSRVHHSPFSGHLDGCSFLSLQHSLHTSLDMSRHENVFLGLTLSSKSAGLKGFQLAFVPGLLQGTGGYLDGPLPTPVDNPRVGLEVGLRLSLPPLPPCPGVHIQSSQTVESSGLYTLQSILKAQLVKEDKDAQFYCELNYRLPSGNHMKESREVTVPVFYPTEKVWLEVEPVGMLKEGDRVEIRCLADGNPPPHFSISKQNPSTREAEEETTNDNGVLVLEPARKEHSGRYECQGLDLDTMISLLSEPQELLVNYVSDVRVSPAAPERQEGSSLTLTCEAESSQDLEFQWLREETGQVLERGPVLQLHDLKREAGGGYRCVASVPSIPGLNRTQLVNVAIFGPPWMAFKERKVWVKENMVLNLSCEASGHPRPTISWNVNGTASEQDQDPQRVLSTLNVLVTPELLETGVECTASNDLGKNTSILFLELVNLTTLTPDSNTTTGLSTSTASPHTRANSTSTGKPGLAREQGCARASFLPCPSPESPVQKGE",–,increased vascularisation,no significant effect,did not,no effect,–,–,nor treatment with recombinant proteins corresponding to these variants modified transendothelial permeability
"rh-I10-sCD146: recombinant spliced variant of soluble CD146 containing intron 10, SEQ ID NO: 9 (protein, listed as Homo sapiens) MGLPRLVCAFLLAACCCCPRVAGVPGEAEQPAPELVEVEVGSTALLKCGLSQSQGNLSHVDWFSVHKEKRTLIFRVRQGQGQSEPGEYEQRLSLQDRGATLALTQVTPQDERIFLCQGKRPRSQEYRIQLRVYKAPEEPNIQVNPLGIPVNSKEPEEVATCVGRNGYPIPQVIWYKNGRPLKEEKNRVHIQSSQTVESSGLYTLQSILKAQLVKEDKDAQFYCELNYRLPSGNHMKESREVTVPVFYPTEKVWLEVEPVGMLKEGDRVEIRCLADGNPPPHFSISKQNPSTREAEEETTNDNGVLVLEPARKEHSGRYECQGLDLDTMISLLSEPQELLVNYVSDVRVSPAAPERQEGSSLTLTCEAESSQDLEFQWLREETGQVLERGPVLQLHDLKREAGGGYRCVASVPSIPGLNRTQLVNVAIFGEALPLGRDQVTPSGVVFKLFDKKPPAALGSSGAEGEAG",–,increased vascularisation,reduced this dermal thickness to the value observed in control animals,increased vascularisation,significantly reversed,–,–,nor treatment with recombinant proteins corresponding to these variants modified transendothelial permeability
